In patent publication US20220098307A1 (WUHAN YZY BIOPHARMA, published 2022) one finds EC50 data, which are given here for 10 molecules.

B1: M1IC-G2 (bispecific antibody)
chain: not shown
heavy: EVKLDETGGGLVQPGRPMKLSCVASGFTFSDYWMNWVRQSPEKGLEWVAQIRNKPYNYETYYSDSVKGRFTISRDDSKSSVYLQMNNLRVEDMGIYYCTGSYYGMDYWGQGTSVTVSSASTKGPSVFPLAPSSKSTSGGTAALGCLVKDYFPEPVTVSWNSGALTSGVHTFPAVLQSSGLYSLSSVVTVPSSSLGTQTYICNVNHKPSNTKVDKKVEPKSCDKTHTCPPCPAPPVAGPSVFLFPPKPKDTLMISRTPEVTCVVVDVSHEDPEVQFNWYVDGVEVHNAKTKPREEQFNSTFRVVSVLTVVHQDWLNGKEYKCKVSNKGLPAPIEKTISKTKGQPREPQVYTLPPCRDELTKNQVSLWCLVKGFYPSDIAVEWESNGQPENNYKTTPPVLDSDGSFFLYSKLTVDKSRWQQGNVFSCSVMHEALHNHYTQKSLSLSPGK
light: DVVMTQTPLSLPVSLGDQASISCRSSQSLVHSNGNTYLRWYLQKPGQSPKVLIYKVSNRFSGVPDRFSGSGSGTDFTLKISRVEAEDLGVYFCSQSTHVPWTFGGGTKLEIKRTVAAPSVFIFPPSDEQLKSGTASVVCLLNNFYPREAKVQWKVDNALQSGNSQESVTEQDSKDSTYSLSSTLTLSKADYEKHKVYACEVTHQGLSSPVTKSFNRGEC
notes: structure 1 isotype control; CH2 G2CH2
B2: M1IC-WT (bispecific antibody)
chain: not shown
heavy: not shown
light: DVVMTQTPLSLPVSLGDQASISCRSSQSLVHSNGNTYLRWYLQKPGQSPKVLIYKVSNRFSGVPDRFSGSGSGTDFTLKISRVEAEDLGVYFCSQSTHVPWTFGGGTKLEIKRTVAAPSVFIFPPSDEQLKSGTASVVCLLNNFYPREAKVQWKVDNALQSGNSQESVTEQDSKDSTYSLSSTLTLSKADYEKHKVYACEVTHQGLSSPVTKSFNRGEC
notes: structure 1 isotype control; CH2 WT; also called MlIC-WT
B3: M1IC-DG2D (bispecific antibody)
chain: not shown
heavy: EVKLDETGGGLVQPGRPMKLSCVASGFTFSDYWMNWVRQSPEKGLEWVAQIRNKPYNYETYYSDSVKGRFTISRDDSKSSVYLQMNNLRVEDMGIYYCTGSYYGMDYWGQGTSVTVSSASTKGPSVFPLAPSSKSTSGGTAALGCLVKDYFPEPVTVSWNSGALTSGVHTFPAVLQSSGLYSLSSVVTVPSSSLGTQTYICNVNHKPSNTKVDKKVEPKSCDKTHTCPPCPAPPVAGPSVFLFPPKPKDTLMISRTPEVTCVVVAVSHEAPEVQFNWYVDGVEVHNAKTKPREEQFNSTFRVVSVLTVVHQDWLNGKEYKCKVSNKGLPAPIEKTISKTKGQPREPQVYTLPPCRDELTKNQVSLWCLVKGFYPSDIAVEWESNGQPENNYKTTPPVLDSDGSFFLYSKLTVDKSRWQQGNVFSCSVMHEALHNHYTQKSLSLSPGK
light: DVVMTQTPLSLPVSLGDQASISCRSSQSLVHSNGNTYLRWYLQKPGQSPKVLIYKVSNRFSGVPDRFSGSGSGTDFTLKISRVEAEDLGVYFCSQSTHVPWTFGGGTKLEIKRTVAAPSVFIFPPSDEQLKSGTASVVCLLNNFYPREAKVQWKVDNALQSGNSQESVTEQDSKDSTYSLSSTLTLSKADYEKHKVYACEVTHQGLSSPVTKSFNRGEC
notes: structure 1 isotype control; CH2 DG2DCH2; also called MlIC-DG2D
B4: M1IC-SG2 (bispecific antibody)
chain: not shown
heavy: EVKLDETGGGLVQPGRPMKLSCVASGFTFSDYWMNWVRQSPEKGLEWVAQIRNKPYNYETYYSDSVKGRFTISRDDSKSSVYLQMNNLRVEDMGIYYCTGSYYGMDYWGQGTSVTVSSASTKGPSVFPLAPSSKSTSGGTAALGCLVKDYFPEPVTVSWNSGALTSGVHTFPAVLQSSGLYSLSSVVTVPSSSLGTQTYICNVNHKPSNTKVDKKVEPKSCDKTHTCPPSPAPPVAGPSVFLFPPKPKDTLMISRTPEVTCVVVDVSHEDPEVQFNWYVDGVEVHNAKTKPREEQFNSTFRVVSVLTVVHQDWLNGKEYKCKVSNKGLPAPIEKTISKTKGQPREPQVYTLPPCRDELTKNQVSLWCLVKGFYPSDIAVEWESNGQPENNYKTTPPVLDSDGSFFLYSKLTVDKSRWQQGNVFSCSVMHEALHNHYTQKSLSLSPGK
light: DVVMTQTPLSLPVSLGDQASISCRSSQSLVHSNGNTYLRWYLQKPGQSPKVLIYKVSNRFSGVPDRFSGSGSGTDFTLKISRVEAEDLGVYFCSQSTHVPWTFGGGTKLEIKRTVAAPSVFIFPPSDEQLKSGTASVVCLLNNFYPREAKVQWKVDNALQSGNSQESVTEQDSKDSTYSLSSTLTLSKADYEKHKVYACEVTHQGLSSPVTKSFNRGEC
notes: structure 1 isotype control; CH2 SG2CH2
B5: M1IC-AG2 (bispecific antibody)
chain: not shown
heavy: EVKLDETGGGLVQPGRPMKLSCVASGFTFSDYWMNWVRQSPEKGLEWVAQIRNKPYNYETYYSDSVKGRFTISRDDSKSSVYLQMNNLRVEDMGIYYCTGSYYGMDYWGQGTSVTVSSASTKGPSVFPLAPSSKSTSGGTAALGCLVKDYFPEPVTVSWNSGALTSGVHTFPAVLQSSGLYSLSSVVTVPSSSLGTQTYICNVNHKPSNTKVDKKVEPKSCDKTHTCPPAPAPPVAGPSVFLFPPKPKDTLMISRTPEVTCVVVDVSHEDPEVQFNWYVDGVEVHNAKTKPREEQFNSTFRVVSVLTVVHQDWLNGKEYKCKVSNKGLPAPIEKTISKTKGQPREPQVYTLPPCRDELTKNQVSLWCLVKGFYPSDIAVEWESNGQPENNYKTTPPVLDSDGSFFLYSKLTVDKSRWQQGNVFSCSVMHEALHNHYTQKSLSLSPGK
light: DVVMTQTPLSLPVSLGDQASISCRSSQSLVHSNGNTYLRWYLQKPGQSPKVLIYKVSNRFSGVPDRFSGSGSGTDFTLKISRVEAEDLGVYFCSQSTHVPWTFGGGTKLEIKRTVAAPSVFIFPPSDEQLKSGTASVVCLLNNFYPREAKVQWKVDNALQSGNSQESVTEQDSKDSTYSLSSTLTLSKADYEKHKVYACEVTHQGLSSPVTKSFNRGEC
notes: structure 1 isotype control; CH2 AG2CH2
B6: M1IC-PG2 (bispecific antibody)
chain: not shown
heavy: EVKLDETGGGLVQPGRPMKLSCVASGFTFSDYWMNWVRQSPEKGLEWVAQIRNKPYNYETYYSDSVKGRFTISRDDSKSSVYLQMNNLRVEDMGIYYCTGSYYGMDYWGQGTSVTVSSASTKGPSVFPLAPSSKSTSGGTAALGCLVKDYFPEPVTVSWNSGALTSGVHTFPAVLQSSGLYSLSSVVTVPSSSLGTQTYICNVNHKPSNTKVDKKVEPKSCDKTHTCPPPPAPPVAGPSVFLFPPKPKDTLMISRTPEVTCVVVDVSHEDPEVQFNWYVDGVEVHNAKTKPREEQFNSTFRVVSVLTVVHQDWLNGKEYKCKVSNKGLPAPIEKTISKTKGQPREPQVYTLPPCRDELTKNQVSLWCLVKGFYPSDIAVEWESNGQPENNYKTTPPVLDSDGSFFLYSKLTVDKSRWQQGNVFSCSVMHEALHNHYTQKSLSLSPGK
light: DVVMTQTPLSLPVSLGDQASISCRSSQSLVHSNGNTYLRWYLQKPGQSPKVLIYKVSNRFSGVPDRFSGSGSGTDFTLKISRVEAEDLGVYFCSQSTHVPWTFGGGTKLEIKRTVAAPSVFIFPPSDEQLKSGTASVVCLLNNFYPREAKVQWKVDNALQSGNSQESVTEQDSKDSTYSLSSTLTLSKADYEKHKVYACEVTHQGLSSPVTKSFNRGEC
notes: structure 1 isotype control; CH2 PG2CH2
B7: M1IC-G2D (bispecific antibody)
chain: not shown
heavy: EVKLDETGGGLVQPGRPMKLSCVASGFTFSDYWMNWVRQSPEKGLEWVAQIRNKPYNYETYYSDSVKGRFTISRDDSKSSVYLQMNNLRVEDMGIYYCTGSYYGMDYWGQGTSVTVSSASTKGPSVFPLAPSSKSTSGGTAALGCLVKDYFPEPVTVSWNSGALTSGVHTFPAVLQSSGLYSLSSVVTVPSSSLGTQTYICNVNHKPSNTKVDKKVEPKSCDKTHTCPPCPAPPVAGPSVFLFPPKPKDTLMISRTPEVTCVVVDVSHEAPEVQFNWYVDGVEVHNAKTKPREEQFNSTFRVVSVLTVVHQDWLNGKEYKCKVSNKGLPAPIEKTISKTKGQPREPQVYTLPPCRDELTKNQVSLWCLVKGFYPSDIAVEWESNGQPENNYKTTPPVLDSDGSFFLYSKLTVDKSRWQQGNVFSCSVMHEALHNHYTQKSLSLSPGK
light: DVVMTQTPLSLPVSLGDQASISCRSSQSLVHSNGNTYLRWYLQKPGQSPKVLIYKVSNRFSGVPDRFSGSGSGTDFTLKISRVEAEDLGVYFCSQSTHVPWTFGGGTKLEIKRTVAAPSVFIFPPSDEQLKSGTASVVCLLNNFYPREAKVQWKVDNALQSGNSQESVTEQDSKDSTYSLSSTLTLSKADYEKHKVYACEVTHQGLSSPVTKSFNRGEC
notes: structure 1 isotype control; CH2 G2DCH2
B8: M1IC-AAG (bispecific antibody)
chain: not shown
heavy: not shown
light: DVVMTQTPLSLPVSLGDQASISCRSSQSLVHSNGNTYLRWYLQKPGQSPKVLIYKVSNRFSGVPDRFSGSGSGTDFTLKISRVEAEDLGVYFCSQSTHVPWTFGGGTKLEIKRTVAAPSVFIFPPSDEQLKSGTASVVCLLNNFYPREAKVQWKVDNALQSGNSQESVTEQDSKDSTYSLSSTLTLSKADYEKHKVYACEVTHQGLSSPVTKSFNRGEC
notes: structure 1 isotype control; CH2 AAG
B9: M1IC-DG2 (bispecific antibody)
chain: not shown
heavy: EVKLDETGGGLVQPGRPMKLSCVASGFTFSDYWMNWVRQSPEKGLEWVAQIRNKPYNYETYYSDSVKGRFTISRDDSKSSVYLQMNNLRVEDMGIYYCTGSYYGMDYWGQGTSVTVSSASTKGPSVFPLAPSSKSTSGGTAALGCLVKDYFPEPVTVSWNSGALTSGVHTFPAVLQSSGLYSLSSVVTVPSSSLGTQTYICNVNHKPSNTKVDKKVEPKSCDKTHTCPPCPAPPVAGPSVFLFPPKPKDTLMISRTPEVTCVVVAVSHEDPEVQFNWYVDGVEVHNAKTKPREEQFNSTFRVVSVLTVVHQDWLNGKEYKCKVSNKGLPAPIEKTISKTKGQPREPQVYTLPPCRDELTKNQVSLWCLVKGFYPSDIAVEWESNGQPENNYKTTPPVLDSDGSFFLYSKLTVDKSRWQQGNVFSCSVMHEALHNHYTQKSLSLSPGK
light: DVVMTQTPLSLPVSLGDQASISCRSSQSLVHSNGNTYLRWYLQKPGQSPKVLIYKVSNRFSGVPDRFSGSGSGTDFTLKISRVEAEDLGVYFCSQSTHVPWTFGGGTKLEIKRTVAAPSVFIFPPSDEQLKSGTASVVCLLNNFYPREAKVQWKVDNALQSGNSQESVTEQDSKDSTYSLSSTLTLSKADYEKHKVYACEVTHQGLSSPVTKSFNRGEC
notes: structure 1 isotype control; CH2 DG2CH2
B10: M1IC-GG2 (bispecific antibody)
chain: not shown
heavy: EVKLDETGGGLVQPGRPMKLSCVASGFTFSDYWMNWVRQSPEKGLEWVAQIRNKPYNYETYYSDSVKGRFTISRDDSKSSVYLQMNNLRVEDMGIYYCTGSYYGMDYWGQGTSVTVSSASTKGPSVFPLAPSSKSTSGGTAALGCLVKDYFPEPVTVSWNSGALTSGVHTFPAVLQSSGLYSLSSVVTVPSSSLGTQTYICNVNHKPSNTKVDKKVEPKSCDKTHTCPPGPAPPVAGPSVFLFPPKPKDTLMISRTPEVTCVVVDVSHEDPEVQFNWYVDGVEVHNAKTKPREEQFNSTFRVVSVLTVVHQDWLNGKEYKCKVSNKGLPAPIEKTISKTKGQPREPQVYTLPPCRDELTKNQVSLWCLVKGFYPSDIAVEWESNGQPENNYKTTPPVLDSDGSFFLYSKLTVDKSRWQQGNVFSCSVMHEALHNHYTQKSLSLSPGK
light: DVVMTQTPLSLPVSLGDQASISCRSSQSLVHSNGNTYLRWYLQKPGQSPKVLIYKVSNRFSGVPDRFSGSGSGTDFTLKISRVEAEDLGVYFCSQSTHVPWTFGGGTKLEIKRTVAAPSVFIFPPSDEQLKSGTASVVCLLNNFYPREAKVQWKVDNALQSGNSQESVTEQDSKDSTYSLSSTLTLSKADYEKHKVYACEVTHQGLSSPVTKSFNRGEC
notes: structure 1 isotype control; CH2 GG2CH2

For the assay, the target named is T1, Monkey CD3 (monkey).
T1 construct: whole, on cells; also called CD3 of monkey CD3 positive T cells
Put plainly: flow cytometry, monkey T cells.
As usually defined, the EC50 is the midpoint of the concentration-response curve. B1 yielded an EC50 of 10.4 nM.
The figure for B2 is 19.8 nM; for B3 it is 16 nM; for B4 it is 13.2 nM.
With B5, the EC50 is 14.2 nM.
The figure for B6 is 17.8 nM; for B7 it is 10.6 nM; for B8 it is 8.79 nM.
B9 registered an EC50 of 14.5 nM.
The molecule B10 returned a half-maximal effective concentration (EC50) of 13 nM.
